Experimental data from publication PMC6879724.

Target: Manduca sexta CAD repeat 12 (CR12) fragment
Test: ELISA
Conditions: plates coated with 0.5 μg of CR12, read off a plot

Substance “Cry1Ab activated toxin (from UniProt P0A370) G439D” has a response (Absorbance 490 nm) (25 nM activated toxin mixed with PxHsp90 at a 1:30 ratio (toxin to chaperone), parent measured without PxHsp90, parent: est. 1.2) of 0.58, a response (Absorbance 490 nm) (25 nM activated toxin, no PxHsp90, parent: est. 1.2) of 0.44 and a response (Absorbance 490 nm) (50 nM activated toxin mixed with PxHsp90 at a 1:30 ratio (toxin to chaperone), parent measured without PxHsp90, parent: est. 1.6) of 0.77. The response (Absorbance 490 nm) (50 nM activated toxin, no PxHsp90, parent: est. 1.6) was 0.48, the response (Absorbance 490 nm) (100 nM activated toxin mixed with PxHsp90 at a 1:30 ratio (toxin to chaperone), parent measured without PxHsp90, parent: est. 1.7) was 1.1 and the response (Absorbance 490 nm) (100 nM activated toxin, no PxHsp90, parent: est. 1.7) was 0.66.
With “Cry1Ab protoxin (from UniProt P0A370) G439D” the response (Absorbance 490 nm) (25 nM protoxin mixed with PxHsp90 at a 1:30 ratio (protoxin to chaperone), parent measured without PxHsp90, parent: est. …) was 0.82, the response (Absorbance 490 nm) (25 nM protoxin, no PxHsp90, parent: est. 0.86) was 0.44 and the response (Absorbance 490 nm) (50 nM protoxin mixed with PxHsp90 at a 1:30 ratio (protoxin to chaperone), parent measured without PxHsp90, parent: est. …) was 1.2. It also gave a response (Absorbance 490 nm) (50 nM protoxin, no PxHsp90, parent: est. 0.95) of 0.47, a response (Absorbance 490 nm) (100 nM protoxin mixed with PxHsp90 at a 1:30 ratio (protoxin to chaperone), parent measured without PxHsp90, parent: est. …) of 1.6 and a response (Absorbance 490 nm) (100 nM protoxin, no PxHsp90, parent: est. 1.2) of 0.52.
